The target of the assay is SARS-CoV-2 JN.1 RBD, biotinylated (SARS-CoV-2) (UniProt P0DTC2). Put plainly: BLI; […]; 300 s association, 300 s dissociation; 10x kinetics buffer; […]; global fit, 1:1 model; […]. (Biolayer interferometry detects binding as a change in optical thickness at a sensor tip.)

The values below come from article PMC12901202.

For “TRI2-2 homotrimeric miniprotein inhibitor (designed binder)”, the Kd (in general, the equilibrium constant for the complex coming apart) is 6.19 nM; the koff (commonly the rate constant with which the complex falls apart) worked out at 0.00175 s⁻¹; the on-rate (kon) (as a rule, a measure of how fast the partners come together) was 282000 M⁻¹ s⁻¹.
